Assay results reported in publication PMC5807507, “Crystal structures of a bacterial dipeptidyl peptidase IV reveal a novel substrate recognition mechanism distinct from that of mammalian orthologues” (Scientific Reports, 2018).

B1: Human DPP IV (Homo sapiens) (protein)
chain: SRKTYTLTDYLKNTYRLKLYSLRWISDHEYLYKQENNILVFNAEYGNSSVFLENSTFDEFGHSINDYSISPDGQFILLEYNYVKQWRHSYTASYDIYDLNKRQLITEERIPNNTQWVTWSPVGHKLAYVWNNDIYVKIEPNLPSYRITWTGKEDIIYNGITDWVYEEEVFSAYSALWWSPNGTFLAYAQFNDTEVPLIEYSFYSDESLQYPKTVRVPYPKAGAVNPTVKFFVVNTDSLSSVTNATSIQITAPASMLIGDHYLCDVTWATQERISLQWLRRIQNYSVMDICDYDESSGRWNCLVARQHIEMSTTGWVGRFRPSEPHFTLDGNSFYKIISNEEGYRHICYFQIDKKDCTFITKGTWEVIGIEALTSDYLYYISNEYKGMPGGRNLYKIQLSDYTKVTCLSCELNPERCQYYSVSFSKEAKYYQLRCSGPGLPLYTLHSSVNDKGLRVLEDNSALDKMLQNVQMPSKKLDFIILNETKFWYQMILPPHFDKSKKYPLLLDVYAGPCSQKADTVFRLNWATYLASTENIIVASFDGRGSGYQGDKIMHAINRRLGTFEVEDQIEAARQFSKMGFVDNKRIAIWGWSYGGYVTSMVLGSGSGVFKCGIAVAPVSRWEYYDSVYTERYMGLPTPEDNLDHYRNSTVMSRAENFKQVEYLLIHGTADDNVHFQQSAQISKALVDVGVDFQAMWYTDEDHGIASSTAHQHIYTHMSHFIKQCFSLP
notes: homodimer
B2: PmDAP IV (Pseudoxanthomonas mexicana) (protein)
chain: AEKLTLEAITGSAPLSGPTLTKPQIAPDGSRVTFLRGKDRDRNRLDLWEYDIASGQTRLLVDSSVVLPGEEVLSDEEKARRERQRIAALSGIVDYQWSPDGKALLFPLGGELYFYDLTKSGRDAVRKLTNGGGFATDPKISPKGGFVSFIRDRNLWAIDLASGKEVQLTRDGSDTIGNGVAEFVADEEMDRHTGYWWAPDDAAIAFARIDETPVPVQKRYEVYPDRTEVVEQRYPAAGDHNVRVQLGVIAPKTGARPRWIDLGKDPDIYLARVDWRDPQRLTFQRQSRDQKKIELIETTLTNGTQRTLVTETSTTWVPLHNDLRFLKDGRFLWSSERSGFEHLYVASEDGSTLTALTQGEWVVDSLLAIDEAAGLAYVSGTRDGATEAHVYAVPLSGGEPRRLTQAPGMHAATFARNASVFVDSWSSDTTLPQIELFKADGTKLATLLVNDVSDATHPYAKYRAAHQPTAYGTLTAADGTTPLHYSLIKPAGFDPKKQYPVVVFVYGGPAAQTVTRAWPGRSDSFFNQYLAQQGYVVFTLDNRGTPRRGAAFGGALYGKQGTVEVDDQLRGIEWLKSQAFVDPARIGVYGWSNGGYMTLMLLAKHDEAYACGVAGAPVTDWALYDTHYTERYMDLPKANEAGYREASVFTHVDGIGAGKLLLIHGMADDNVLFTNSTKLMSELQKRGTPFELMTYPGAKHGLRGSDLLHRYRLTEDFFARCLKP
notes: M12I lies in the removed signal; no tag; 723 residues, 82-kDa; homodimer; crystal model Ala22-Pro745

What was measured:
[1] = substrate: Cc1cc(=O)oc2cc(NC(=O)[C@@H]3CCCN3C(=O)CN)ccc12; assay: fluorescence of released MCA; Michaelis-Menten nonlinear fit; format: biochemical, Homo sapiens; details: […] substrate, […] sodium phosphate pH […] EDTA, […] Tween […] K, […] min
Excerpt: fluorescence of released MCA; Michaelis-Menten nonlinear fit on Human DPP IV

[2] = substrate: Cc1cc(=O)oc2cc(NC(=O)[C@@H]3CCCN3C(=O)CN)ccc12; assay: as above; format: biochemical, Pseudoxanthomonas mexicana; details: […] substrate, […] sodium phosphate pH […] EDTA, […] Tween […] K, […] min
Excerpt: fluorescence of released MCA; Michaelis-Menten nonlinear fit on PmDAP IV

Row | Protein | Km [1] [µM] | kcat [1] [s⁻¹] | kcat/Km [1] [M⁻¹ s⁻¹] | Km [2] [µM] | kcat [2] [s⁻¹] | kcat/Km [2] [M⁻¹ s⁻¹]
1 | B1 | 37.1 ± 1.6 | 35.3 ± 1 | 952000 ± 13000 | – | – | –
2 | B2 | – | – | – | 19.4 ± 0.8 | 19.2 ± 0.4 | 989000 ± 35000
